{"source": "patent US20150064747A1", "target": "EBV DNA polymerase BALF5 catalytic subunit, full-length (Epstein-Barr Virus) (UniProt P03198)", "sequence (P03198 1-1015, tags or fused parts left off)": "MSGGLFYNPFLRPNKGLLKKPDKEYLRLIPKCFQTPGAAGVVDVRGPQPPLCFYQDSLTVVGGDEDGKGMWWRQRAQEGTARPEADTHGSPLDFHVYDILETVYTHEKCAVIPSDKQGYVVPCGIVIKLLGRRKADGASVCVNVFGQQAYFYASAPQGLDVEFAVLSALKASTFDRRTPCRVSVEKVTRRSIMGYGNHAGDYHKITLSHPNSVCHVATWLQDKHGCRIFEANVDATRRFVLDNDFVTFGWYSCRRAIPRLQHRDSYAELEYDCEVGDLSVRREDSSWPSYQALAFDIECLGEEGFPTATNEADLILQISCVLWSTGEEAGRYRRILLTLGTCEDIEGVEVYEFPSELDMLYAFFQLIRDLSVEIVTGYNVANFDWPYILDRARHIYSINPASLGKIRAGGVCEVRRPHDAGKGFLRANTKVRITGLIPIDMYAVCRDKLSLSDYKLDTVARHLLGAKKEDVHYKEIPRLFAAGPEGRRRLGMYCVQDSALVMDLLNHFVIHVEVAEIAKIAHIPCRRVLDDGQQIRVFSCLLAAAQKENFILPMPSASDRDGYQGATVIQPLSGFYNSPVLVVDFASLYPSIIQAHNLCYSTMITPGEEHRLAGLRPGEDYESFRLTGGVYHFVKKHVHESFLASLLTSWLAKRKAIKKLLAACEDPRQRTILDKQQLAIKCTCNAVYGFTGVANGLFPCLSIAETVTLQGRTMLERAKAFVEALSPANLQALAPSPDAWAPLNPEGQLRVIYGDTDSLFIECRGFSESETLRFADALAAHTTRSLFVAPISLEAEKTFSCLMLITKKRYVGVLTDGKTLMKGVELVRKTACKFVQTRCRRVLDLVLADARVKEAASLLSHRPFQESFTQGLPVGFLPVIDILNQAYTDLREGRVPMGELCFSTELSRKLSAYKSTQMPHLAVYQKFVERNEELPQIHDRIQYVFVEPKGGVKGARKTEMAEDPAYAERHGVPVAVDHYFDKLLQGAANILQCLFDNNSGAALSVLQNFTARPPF", "assay": "cell-based or functional assay", "data": [{"substance": "EBV BMRF1 processivity factor, full-length (from UniProt P03191 1-404)", "values": [{"measurement": "DNA polymerase elongation activity on activated calf thymus DNA at 100 mM ammonium sulfate", "result": "> 100", "unit": "fold"}]}]}
